According to US20260201069A1, “ANTIBODIES THAT SPECIFICALLY BIND MODIFIED OLIGONUCLEOTIDES” (Hoffmann-La Roche Inc., priority 2024, published 2026):

Columns and labels:
ASO 042 = experiment: SPR (BIAcore) binding kinetics and affinity; conditions: analyte ASO 042, bivalent IgG format, 25° C.
Procedure: (§1) In more detail, LNA binding of the antibodies according to the current invention was characterized by surface plasmon resonance (SPR) using a BIAcore instrument with a HEPES-based running and dilution buffer at 25° C. About 100-200 resonance units (RU) of an anti-LNA antibody with an Fc-region of the human IgG1 subclass and the mutations P329G, L234A and L235A (according to Kabat EU index; human IgG Fc-PGLALA) or an anti-LNA Fab fragment with human CL and CH1 (kappa, IgG1 isotype), respectively, was captured on the surface of a Series S Sensor Chip CM3 derivatized by standard amine coupling with either a mouse anti-human IgG Fc-PGLALA antibody or a goat anti-human F(ab′2) antibody with final total surface densities of approximately 5000 RU. Different LNA-modified ASOs were passed over the derivatized SPR chip surface by injecting the respective solutions in a 1:3 dilution series up to a final concentration of 1000 nM. Association was monitored for 3 min and dissociation for 5 min at a flow rate of 30 μl/min each. Bulk refractive index differences were corrected by subtracting blank injections and by subtracting the response obtained from the reference flow cell without captured antibody. Curve fitting was performed using the 1:1 Langmuir binding model within the BIAcore evaluation software.
(§2) To assess the binding specificities and affinities of the LNA-binding antibodies according to the current invention, surface plasmon resonance was used as described, e.g., in WO 2020/141117 and WO 2022/175217.
(§3) To assess the specificities and affinities of LNA-binding antibodies, surface plasmon resonance was done as described in WO 2020/141117 and WO 2022/175217. ASO binding was investigated by surface plasmon resonance (SPR) using a BIAcore T200 instrument (Cytiva). As a running and dilution buffer, HEPES buffered saline (HBS) containing 0.05% PS20 was used, the temperature was set to 25° C. For capturing anti-LNA Fabs or complete anti-LNA antibodies to a Series S Sensor Chip CM3 (Cytiva), either a mouse anti-human IgG antibody (Roche Diagnostics GmbH) or a goat anti-human F(ab′2) antibody (Jackson ImmunoResearch) was immobilized using standard amine coupling chemistry with final total surface densities of approximately 5000 resonance units (RU). The anti-LNA antibodies were captured to the surface by an injection for 30 sec., leading to response levels of approx. 100-200 RU. Different ASO molecules were injected in a 1:3 dilution series up to 1000 nM. Association was monitored for 3 min. and dissociation for 5 min. at a flow rate of 30 μl/min each. Subsequently, the surface was regenerated by injecting 10 mM NaOH (anti-human IgG antibody surface) or 10 mM Glycine pH 1.7 (anti-human IgG F(ab′2) antibody surface) for 60 sec. Bulk refractive index differences were corrected by subtracting blank injections and by subtracting the response obtained from the reference flow cell without captured antibody. Curve fitting was performed using the 1:1 Langmuir binding model within the BIAcore evaluation software.

ASO 297 = experiment: SPR (BIAcore) binding kinetics and affinity; conditions: analyte ASO 297, bivalent IgG format, 25° C.
Procedure: as §1, §2, §3

ASO 420 = experiment: SPR (BIAcore) binding kinetics and affinity; conditions: analyte ASO 420, bivalent IgG format, 25° C.; for Kd: read-out: K
Procedure: as §1, §2, §3

ASO 827 = experiment: SPR (BIAcore) binding kinetics and affinity; conditions: analyte ASO 827, bivalent IgG format, 25° C.
Procedure: as §1, §2, §3

[1] = test system: fusion 2489 (antibody-ASO 918 conjugate); experiment: SPR (BIAcore) binding kinetics and affinity; conditions: analyte fusion 2489, bivalent IgG format, 25° C.
Procedure: as §1, §2, §3

[2] = test system: fusion 2899 (antibody-ASO 918 conjugate); experiment: SPR (BIAcore) binding kinetics and affinity; conditions: analyte fusion 2899, bivalent IgG format, 25° C.
Procedure: as §1, §2, §3

[3] = test system: LNA-modified ASOs and antibody-ASO conjugates; experiment: SPR binding; conditions: summary in words
Procedure: as §1
Further analyses of the pan anti-LNA antibody according to the invention produced by clone 1.9.21 a trivalent, bispecific format was used. This trivalent, bispecific format comprises an IgG1 Fc-region (with knobs-into-holes-cys1 mutations) to which at one of the N-termini of the Fc-region a germline Fab (DP47; SEQ ID NO: 137 and 138) has been fused and at both of the C-termini of the Fc-region each one anti-LNA Fab (fab 0699) according to the current invention produced by clone 1.9.21 has been fused (fusion 1861). […]
To assess the specificities and affinities of LNA-binding antibodies, surface plasmon resonance was done as described in WO 2020/141117 and WO 2022/175217. […] Association was monitored for 3 min. and dissociation for 5 min. at a flow rate of 30 μl/min each. […]

Koff (ASO 297; oos = out of specification) | Kon (ASO 042; oos = out of specification) | Molecule | K (ASO 042) | Kd (ASO 420) [nM] | K (ASO 827) | K [1] | K [2] | binding to the tested analytes (ASOs and antibody-ASO conjugates) [3] | K (ASO 297) | K (ASO 420) | Kd (ASO 042; read-out: K) [nM] | Kd (ASO 297; read-out: K) [nM] | Kd (ASO 827; read-out: K) [nM] | Kd ([1]; read-out: K) [nM] | Kd ([2]; read-out: K) [nM]
oos |  | mAb 5392: anti-LNA antibody produced by clone 1.7.15 in the bivalent standard Y-shaped IgG format (antibody, V domains shown) VH: QVQLKQSGPSFVQPSQSLSITCTVSGFSLTTYGVHWVRQSPGKGLEWLGVIWRSGGTDYNAAFMSRLSITKDNSKSQVFFKMNSLQTDDTAIYYCTNLYYWGQGTTLTVSS VL: DIVMTQATFSNPVTLGTSVSISCRSSKSLLRSNGITYLYWYLQKPGQSPQLLIYQMSNLASGVPDRFSSSGSGTDFTLRISRVEAEDVGVYYCGQNLELPYTFGSGTKVEIK | no binding | 198 | no binding | no/low binding | no/low binding | binds to some of the ASOs, while showing no or very low binding to other ASOs |  |  |  |  |  |  | 
 |  | mAb 5391: anti-LNA antibody produced by clone 1.2.8 in the bivalent standard Y-shaped IgG format (antibody, V domains shown) VH: QIQLRESGPGLVAPSQSLSITCTVSGFSLTNYGVHWVRQPPGKGLEWLGVIWAGGSTIYNSALMSRLSISRDNSKSQVFLEMNSLQTYDTAMYYCARDRPFDGFFFSYWGQGTALTVSS VL: DVLMTQTPLSLPVSLGDQASISCRSSQAIVHRSGNTFLEWYLQKPGQSPKLLIYKVSNRFSGVPDRFSGSGSGTDFTLKINRVEAEDLGVYYCFQGSHVPYTFGSGTKLEIK | no binding |  | no binding | no/low binding | no/low binding | no to very low binding to all of the analytes tested | no binding | no binding |  |  |  |  | 
 | oos | mAb 5393: anti-LNA antibody produced by clone 1.9.21 in the bivalent standard Y-shaped IgG format (antibody, V domains shown) VH: QVQLQQSGAELVRPGTSVKVSCKASGYAFTNYLIEWIKQRPGQGLEWIGVINPGSGGTNYNEKFRVKATLTADKSSSTAYMQLSSLTSDDSAVYFCARGGGYYWGQGTLVTVSA VL: DIVMTQAAPSVPVTPGESVSISCRSSKSLLHSNGNTYLFWFLQRPGQSPQVLIYRMSNLASGVPDRFSGSGSGTAFTLRISRVEAEDVGVYYCMQHLEYPYTFGSGTRLEIK |  | 0.0379 |  |  |  | binds to all of the tested ASOs and antibody-ASO conjugates with good affinity |  |  | < 1 | 26.2 | 0.0414 | 0.116 | 0.169
